This series has as its target acetylcholinesterase (AChE) (UniProt O42275 24-633). In words: single-molecule nanopore; 100 pM lambda DNA carrier also carrying TBA probe and thrombin, 100 mM KCl; Nanopore: 100 mM KCl Tris-EDTA, pH 8, 45 min incubation; EMSA thrombin: 140 mM NaCl, 20 mM MgCl2, 20 mM PBS pH 7.4, 45 min; EMSA AChE: 2.7 mM KCl, 4 mM MgCl2, PBS pH 7.4, 1 h; temperature not stated. The following applies: protein: commercial; chain copies: 4; free oligo in EMSA. In general terms: In EMSA bound probe runs differently from free probe, usually more slowly.

Sequence of acetylcholinesterase (AChE) (O42275 24-633): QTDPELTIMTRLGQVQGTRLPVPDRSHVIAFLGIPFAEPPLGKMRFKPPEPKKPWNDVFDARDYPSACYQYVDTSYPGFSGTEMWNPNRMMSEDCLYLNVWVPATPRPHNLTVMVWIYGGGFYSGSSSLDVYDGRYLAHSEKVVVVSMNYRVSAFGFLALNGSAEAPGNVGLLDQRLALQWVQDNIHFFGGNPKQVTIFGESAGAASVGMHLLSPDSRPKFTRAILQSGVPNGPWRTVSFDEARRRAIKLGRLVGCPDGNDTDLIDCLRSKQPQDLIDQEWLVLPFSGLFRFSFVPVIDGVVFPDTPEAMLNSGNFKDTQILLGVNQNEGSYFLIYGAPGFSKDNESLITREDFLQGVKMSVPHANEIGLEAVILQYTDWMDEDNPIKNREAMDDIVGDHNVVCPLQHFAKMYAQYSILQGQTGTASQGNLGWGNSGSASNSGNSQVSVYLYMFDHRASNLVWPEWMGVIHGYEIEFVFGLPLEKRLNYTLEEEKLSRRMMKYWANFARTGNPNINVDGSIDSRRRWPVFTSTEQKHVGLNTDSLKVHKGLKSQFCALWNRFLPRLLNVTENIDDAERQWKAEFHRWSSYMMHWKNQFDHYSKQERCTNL

B1: Target ii AChE probe (75 nt) (mixed)
DNA: GGTTGACTGTAGCTCTGGCAGACGTAGTGTGAAGGTACCGGGCGGCGACCTAAGGTGTCGTGCGTAAGTTTTTAA
With B1, the binding result is on record as “binds”.

Values taken from PMC5691071, “Single molecule multiplexed nanopore protein screening in human serum using aptamer modified DNA carriers”.
